Test results reported in patent US10808017B2, “Ubiquitin variants and uses therof as 53BP1 inhibitors” (The Governing Council of the University of Toronto, priority 2016, dated 2020).
Values joined by “and” are separate entries in the source; they are usually repeats but may differ in a detail not shown here. Identical values can stand only once.

Experiments:
INTS3 = molecular target: T1, INTS3 (Homo sapiens, UniProt Q68E01); assay: Flag IP-MS of i53/i53-DM baits: prey INTS3; type: binding; settings: 293T Flp-In/T-Rex extracts, LC-MS/MS, one column per replicate IP
T1 construct: Following immunoprecipitation of Flag-tagged i53 and i-53-DM from HEK293 Flp-In/T-REx cells, peptides were identified using LC-MS/MS; endogenous in cells; host or cells: HEK293 Flp-In/T-REx cells
Experimental: (§1) Following immunoprecipitation of Flag-tagged i53 and i-53-DM from HEK293 Flp-In/T-REx cells, peptides were identified using LC-MS/MS. Proteins were digested in solution with trypsin (Sigma, T7575-1KT) and dried to completeness. For LC-MS/MS analysis, peptides were reconstituted in 5% formic acid and loaded onto a 12-15 cm fused silica column with pulled tip packed in-house with 3.5 μm Zorbax C18 (Agilent Technologies, Calif., USA).
(§2) i53 and i53-DM precipitates were analyzed using an LTQ (Thermo Scientific) coupled to an Agilent 1100 Series HPLC (Agilent Technologies). Peptides were eluted from the column using a 90 min period cycle with a linear gradient from 0% to 40% ACN in 0.1% formic acid. Tandem MS spectra were acquired in a data-dependent mode for the top 5 (LTQ) most abundant ions using collision-induced dissociation. Acquired spectra were searched against the human Refseq_V53 database using Mascot (Matrix Science).
(§3) 293T Flp-In/T-Rex cell lines were generated that expressed Flag-tagged i53 or i53-DM under the control of a tetracycline-inducible promoter as previously described. Nine IP-MS experiments were analyzed (3 biological replicate IPs each for control i53- and i53-DM expressing cell lines). The interacting proteins were identified by MASCOT to identify high-confidence interactors for i53. […]

ARFGAP2 = molecular target: T2, ARFGAP2 (Homo sapiens, UniProt Q8N6H7); assay: Flag IP-MS of i53/i53-DM baits: prey ARFGAP2; type: binding; settings: 293T Flp-In/T-Rex extracts, LC-MS/MS, one column per replicate IP
T2 construct: endogenous in cells; host or cells: HEK293 Flp-In/T-REx
Experimental: as §1, §2, §3

KRT6A = molecular target: T3, KRT6A (Homo sapiens, UniProt P02538); assay: Flag IP-MS of i53/i53-DM baits: prey KRT6A; type: binding; settings: 293T Flp-In/T-Rex extracts, LC-MS/MS, one column per replicate IP
T3 construct: Following immunoprecipitation of Flag-tagged i53 and i-53-DM from HEK293 Flp-In/T-REx cells, peptides were identified using LC-MS/MS; endogenous in cells; host or cells: HEK293 Flp-In/T-REx cells
T3 sequence (P02538 1-564): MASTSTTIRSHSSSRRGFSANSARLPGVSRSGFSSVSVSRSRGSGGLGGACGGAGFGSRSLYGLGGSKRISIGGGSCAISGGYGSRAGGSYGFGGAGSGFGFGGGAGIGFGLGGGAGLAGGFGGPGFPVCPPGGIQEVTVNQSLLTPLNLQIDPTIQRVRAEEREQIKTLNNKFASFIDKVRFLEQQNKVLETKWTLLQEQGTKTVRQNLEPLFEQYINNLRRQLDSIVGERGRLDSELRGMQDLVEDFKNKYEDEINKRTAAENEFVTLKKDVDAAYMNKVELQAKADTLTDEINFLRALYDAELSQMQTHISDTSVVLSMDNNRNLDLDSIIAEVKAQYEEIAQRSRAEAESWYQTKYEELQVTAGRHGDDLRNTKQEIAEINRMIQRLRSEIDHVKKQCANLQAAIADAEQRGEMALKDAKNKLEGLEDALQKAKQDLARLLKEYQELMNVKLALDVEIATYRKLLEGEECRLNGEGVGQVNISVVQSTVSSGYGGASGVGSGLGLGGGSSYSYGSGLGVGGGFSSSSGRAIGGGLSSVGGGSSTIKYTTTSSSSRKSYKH
Experimental: as §1, §2, §3

MGA = molecular target: T4, MGA (Homo sapiens, UniProt Q8IWI9); assay: Flag IP-MS of i53/i53-DM baits: prey MGA; type: binding; settings: 293T Flp-In/T-Rex extracts, LC-MS/MS, one column per replicate IP
T4 construct: endogenous in cells; host or cells: HEK293 Flp-In/T-REx cells
Experimental: as §1, §2, §3

KDM5B = molecular target: T5, KDM5B (Homo sapiens, UniProt Q9UGL1); assay: Flag IP-MS of i53/i53-DM baits: prey KDM5B; type: binding; settings: 293T Flp-In/T-Rex extracts, LC-MS/MS, one column per replicate IP
T5 construct: endogenous in cells; host or cells: HEK293 Flp-In/T-REx
Experimental: as §1, §2, §3

DLEC1 = molecular target: T6, DLEC1 (Homo sapiens, UniProt Q9Y238); assay: Flag IP-MS of i53/i53-DM baits: prey DLEC1; type: binding; settings: 293T Flp-In/T-Rex extracts, LC-MS/MS, one column per replicate IP
T6 construct: endogenous in cells; host or cells: HEK293 Flp-In/T-REx cells
Experimental: as §1, §2, §3

TXNDC12 = molecular target: T7, TXNDC12 (Homo sapiens, UniProt O95881); assay: Flag IP-MS of i53/i53-DM baits: prey TXNDC12; type: binding; settings: 293T Flp-In/T-Rex extracts, LC-MS/MS, one column per replicate IP
T7 construct: endogenous in cells; host or cells: HEK293 Flp-In/T-REx
Experimental: as §1, §2, §3

RAB34 = assay: Flag IP-MS of i53/i53-DM baits: prey RAB34; type: binding, human; settings: 293T Flp-In/T-Rex extracts, LC-MS/MS, one column per replicate IP
Experimental: as §1, §2, §3

RERGL = molecular target: T8, RERGL (Homo sapiens, UniProt Q9H628); assay: Flag IP-MS of i53/i53-DM baits: prey RERGL; type: binding; settings: 293T Flp-In/T-Rex extracts, LC-MS/MS, one column per replicate IP
T8 construct: endogenous in cells; host or cells: HEK293 Flp-In/T-REx cells
T8 sequence (Q9H628 1-204): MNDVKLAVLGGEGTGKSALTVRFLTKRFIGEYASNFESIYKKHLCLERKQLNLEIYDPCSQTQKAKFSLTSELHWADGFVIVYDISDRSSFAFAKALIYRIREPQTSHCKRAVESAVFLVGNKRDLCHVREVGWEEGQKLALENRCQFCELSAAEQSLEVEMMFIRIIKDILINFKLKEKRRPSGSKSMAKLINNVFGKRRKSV
Experimental: as §1, §2, §3

RBMXL1 = molecular target: T9, RBMXL1 (Homo sapiens, UniProt Q96E39); assay: Flag IP-MS of i53/i53-DM baits: prey RBMXL1; type: binding; settings: 293T Flp-In/T-Rex extracts, LC-MS/MS, one column per replicate IP
T9 construct: endogenous in cells; host or cells: HEK293 Flp-In/T-REx cells
Experimental: as §1, §2, §3

TP53BP1 = molecular target: T10, TP53BP1 (Homo sapiens, UniProt Q12888); assay: Flag IP-MS of i53/i53-DM baits: prey TP53BP1; type: binding
T10 construct: endogenous in cells; host or cells: HEK293 Flp-In/T-REx
Experimental: as §1, §2, §3

GSPT1 = molecular target: T11, GSPT1 (Homo sapiens, UniProt P15170); assay: Flag IP-MS of i53/i53-DM baits: prey GSPT1; type: binding; settings: 293T Flp-In/T-Rex extracts, LC-MS/MS, one column per replicate IP
T11 construct: endogenous in cells; host or cells: HEK293 Flp-In/T-REx
Experimental: as §1, §2, §3

CAPZA2 = molecular target: T12, CAPZA2 (Homo sapiens, UniProt P47755); assay: Flag IP-MS of i53/i53-DM baits: prey CAPZA2; type: binding; settings: 293T Flp-In/T-Rex extracts, LC-MS/MS, one column per replicate IP
T12 construct: endogenous in cells; host or cells: HEK293 Flp-In/T-REx
Experimental: as §1, §2, §3

HIST1H2BG = molecular target: T13, HIST1H2BG (Homo sapiens, UniProt P62807); assay: Flag IP-MS of i53/i53-DM baits: prey HIST1H2BG; type: binding; settings: 293T Flp-In/T-Rex extracts, LC-MS/MS, one column per replicate IP
T13 construct: endogenous in cells; host or cells: HEK293 Flp-In/T-REx
Experimental: as §1, §2, §3

T10 sequence (Q12888 whole entry): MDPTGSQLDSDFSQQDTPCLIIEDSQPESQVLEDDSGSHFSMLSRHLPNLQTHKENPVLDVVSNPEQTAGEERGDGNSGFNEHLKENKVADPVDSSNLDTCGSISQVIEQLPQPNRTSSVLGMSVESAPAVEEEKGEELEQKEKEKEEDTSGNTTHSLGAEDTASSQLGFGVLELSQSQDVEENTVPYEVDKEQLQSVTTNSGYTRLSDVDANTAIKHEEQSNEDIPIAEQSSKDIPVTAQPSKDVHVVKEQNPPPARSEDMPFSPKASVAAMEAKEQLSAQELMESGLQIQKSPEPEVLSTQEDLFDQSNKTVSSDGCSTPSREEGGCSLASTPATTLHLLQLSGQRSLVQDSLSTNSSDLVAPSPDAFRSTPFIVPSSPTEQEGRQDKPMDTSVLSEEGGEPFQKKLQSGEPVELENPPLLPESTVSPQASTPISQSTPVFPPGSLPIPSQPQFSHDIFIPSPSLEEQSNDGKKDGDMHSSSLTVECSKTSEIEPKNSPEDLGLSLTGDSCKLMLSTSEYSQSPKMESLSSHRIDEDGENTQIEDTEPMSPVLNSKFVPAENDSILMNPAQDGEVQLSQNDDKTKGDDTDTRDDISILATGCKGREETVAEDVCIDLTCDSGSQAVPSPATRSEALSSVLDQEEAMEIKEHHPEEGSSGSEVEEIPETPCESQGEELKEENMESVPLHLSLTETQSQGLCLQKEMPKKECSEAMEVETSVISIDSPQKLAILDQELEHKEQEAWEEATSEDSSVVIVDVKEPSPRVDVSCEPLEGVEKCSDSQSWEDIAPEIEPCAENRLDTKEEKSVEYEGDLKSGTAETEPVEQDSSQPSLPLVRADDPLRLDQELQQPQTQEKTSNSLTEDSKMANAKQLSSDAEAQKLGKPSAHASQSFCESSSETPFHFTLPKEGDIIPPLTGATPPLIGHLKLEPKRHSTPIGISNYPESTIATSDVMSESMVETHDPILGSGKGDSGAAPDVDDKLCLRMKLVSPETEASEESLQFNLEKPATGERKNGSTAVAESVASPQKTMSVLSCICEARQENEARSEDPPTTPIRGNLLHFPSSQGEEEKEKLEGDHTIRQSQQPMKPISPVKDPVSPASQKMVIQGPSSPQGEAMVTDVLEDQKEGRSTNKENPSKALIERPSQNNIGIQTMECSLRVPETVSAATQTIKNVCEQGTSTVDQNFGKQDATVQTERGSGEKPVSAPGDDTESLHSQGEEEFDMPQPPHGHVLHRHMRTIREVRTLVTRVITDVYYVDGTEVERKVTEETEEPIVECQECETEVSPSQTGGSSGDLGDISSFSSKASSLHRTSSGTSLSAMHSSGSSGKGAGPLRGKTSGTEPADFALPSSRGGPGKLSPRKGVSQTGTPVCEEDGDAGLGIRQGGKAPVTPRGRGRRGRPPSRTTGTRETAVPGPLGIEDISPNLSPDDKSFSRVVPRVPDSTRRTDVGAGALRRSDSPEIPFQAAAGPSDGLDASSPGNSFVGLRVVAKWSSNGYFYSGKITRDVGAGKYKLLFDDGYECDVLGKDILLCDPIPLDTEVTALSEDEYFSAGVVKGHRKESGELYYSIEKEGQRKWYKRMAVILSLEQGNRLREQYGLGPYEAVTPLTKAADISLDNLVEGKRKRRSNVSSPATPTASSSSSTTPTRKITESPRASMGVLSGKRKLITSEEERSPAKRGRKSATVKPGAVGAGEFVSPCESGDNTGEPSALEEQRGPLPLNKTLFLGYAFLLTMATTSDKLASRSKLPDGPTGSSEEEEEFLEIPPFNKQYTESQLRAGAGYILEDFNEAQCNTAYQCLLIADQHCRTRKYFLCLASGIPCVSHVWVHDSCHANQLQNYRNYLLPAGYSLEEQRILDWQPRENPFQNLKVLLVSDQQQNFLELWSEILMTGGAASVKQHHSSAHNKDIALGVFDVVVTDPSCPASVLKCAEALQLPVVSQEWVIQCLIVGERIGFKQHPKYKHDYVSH
T5 sequence (Q9UGL1 whole entry): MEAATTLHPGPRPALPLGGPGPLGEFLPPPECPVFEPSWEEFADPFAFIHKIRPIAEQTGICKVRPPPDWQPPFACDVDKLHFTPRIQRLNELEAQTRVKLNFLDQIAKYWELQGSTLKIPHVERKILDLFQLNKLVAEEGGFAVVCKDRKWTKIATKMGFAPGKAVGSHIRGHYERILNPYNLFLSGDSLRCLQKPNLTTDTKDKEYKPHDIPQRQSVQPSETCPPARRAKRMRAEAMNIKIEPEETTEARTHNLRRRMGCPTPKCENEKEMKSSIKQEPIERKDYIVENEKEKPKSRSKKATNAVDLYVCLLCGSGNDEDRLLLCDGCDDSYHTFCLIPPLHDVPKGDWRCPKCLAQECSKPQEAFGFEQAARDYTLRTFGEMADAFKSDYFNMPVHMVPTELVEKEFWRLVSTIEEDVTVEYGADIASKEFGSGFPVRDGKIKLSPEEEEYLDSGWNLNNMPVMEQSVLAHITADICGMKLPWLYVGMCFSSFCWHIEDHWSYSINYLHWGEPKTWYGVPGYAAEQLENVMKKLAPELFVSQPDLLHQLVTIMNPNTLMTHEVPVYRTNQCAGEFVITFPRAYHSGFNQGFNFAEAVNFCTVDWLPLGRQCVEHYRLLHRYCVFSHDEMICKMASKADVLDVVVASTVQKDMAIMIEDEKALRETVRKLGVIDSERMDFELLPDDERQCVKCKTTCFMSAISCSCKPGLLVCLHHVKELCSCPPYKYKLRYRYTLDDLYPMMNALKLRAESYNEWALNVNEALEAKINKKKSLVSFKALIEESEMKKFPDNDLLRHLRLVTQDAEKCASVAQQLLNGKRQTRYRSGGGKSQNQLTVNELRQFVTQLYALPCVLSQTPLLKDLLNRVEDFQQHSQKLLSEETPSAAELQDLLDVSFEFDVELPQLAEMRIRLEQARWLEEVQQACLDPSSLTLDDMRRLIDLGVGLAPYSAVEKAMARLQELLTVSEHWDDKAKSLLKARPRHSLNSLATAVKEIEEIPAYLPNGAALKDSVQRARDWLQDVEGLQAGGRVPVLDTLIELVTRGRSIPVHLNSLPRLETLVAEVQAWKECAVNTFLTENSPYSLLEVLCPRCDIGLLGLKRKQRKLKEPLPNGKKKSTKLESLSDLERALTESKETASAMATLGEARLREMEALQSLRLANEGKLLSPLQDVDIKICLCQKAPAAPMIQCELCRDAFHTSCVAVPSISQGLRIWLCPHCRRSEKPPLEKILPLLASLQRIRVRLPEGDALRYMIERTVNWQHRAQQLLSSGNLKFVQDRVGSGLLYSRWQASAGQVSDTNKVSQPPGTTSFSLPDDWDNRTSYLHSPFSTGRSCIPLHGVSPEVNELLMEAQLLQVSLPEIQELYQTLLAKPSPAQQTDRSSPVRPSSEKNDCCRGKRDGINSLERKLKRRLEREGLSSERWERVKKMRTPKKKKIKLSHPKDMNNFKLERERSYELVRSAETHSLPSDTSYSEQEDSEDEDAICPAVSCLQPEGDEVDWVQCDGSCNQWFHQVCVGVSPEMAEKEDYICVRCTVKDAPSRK
T11 sequence (P15170 whole entry): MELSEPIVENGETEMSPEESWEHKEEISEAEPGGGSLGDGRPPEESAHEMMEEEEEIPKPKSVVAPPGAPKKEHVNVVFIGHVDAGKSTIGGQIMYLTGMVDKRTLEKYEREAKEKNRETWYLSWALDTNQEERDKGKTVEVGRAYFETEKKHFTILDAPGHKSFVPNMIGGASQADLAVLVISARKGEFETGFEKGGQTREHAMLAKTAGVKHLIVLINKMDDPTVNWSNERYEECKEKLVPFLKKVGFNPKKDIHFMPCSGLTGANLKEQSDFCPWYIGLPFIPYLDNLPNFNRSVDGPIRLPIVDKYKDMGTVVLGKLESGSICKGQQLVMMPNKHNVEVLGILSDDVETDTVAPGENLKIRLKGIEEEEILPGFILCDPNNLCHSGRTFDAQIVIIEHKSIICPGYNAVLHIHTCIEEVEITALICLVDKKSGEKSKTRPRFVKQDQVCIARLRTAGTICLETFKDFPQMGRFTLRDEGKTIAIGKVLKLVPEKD
T2 sequence (Q8N6H7 whole entry): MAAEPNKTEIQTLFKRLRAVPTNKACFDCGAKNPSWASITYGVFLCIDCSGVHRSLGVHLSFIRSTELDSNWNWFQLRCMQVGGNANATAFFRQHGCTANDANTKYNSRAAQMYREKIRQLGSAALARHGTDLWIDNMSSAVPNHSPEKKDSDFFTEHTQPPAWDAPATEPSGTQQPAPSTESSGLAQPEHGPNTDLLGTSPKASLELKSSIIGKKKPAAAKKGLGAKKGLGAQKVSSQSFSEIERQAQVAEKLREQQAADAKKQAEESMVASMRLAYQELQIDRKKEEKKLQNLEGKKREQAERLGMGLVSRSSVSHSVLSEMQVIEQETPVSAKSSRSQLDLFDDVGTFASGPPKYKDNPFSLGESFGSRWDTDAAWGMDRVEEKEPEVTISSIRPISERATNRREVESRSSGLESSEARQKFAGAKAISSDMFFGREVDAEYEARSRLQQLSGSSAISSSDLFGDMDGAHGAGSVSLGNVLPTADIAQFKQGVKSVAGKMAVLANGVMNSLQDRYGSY
T9 sequence (Q96E39 whole entry): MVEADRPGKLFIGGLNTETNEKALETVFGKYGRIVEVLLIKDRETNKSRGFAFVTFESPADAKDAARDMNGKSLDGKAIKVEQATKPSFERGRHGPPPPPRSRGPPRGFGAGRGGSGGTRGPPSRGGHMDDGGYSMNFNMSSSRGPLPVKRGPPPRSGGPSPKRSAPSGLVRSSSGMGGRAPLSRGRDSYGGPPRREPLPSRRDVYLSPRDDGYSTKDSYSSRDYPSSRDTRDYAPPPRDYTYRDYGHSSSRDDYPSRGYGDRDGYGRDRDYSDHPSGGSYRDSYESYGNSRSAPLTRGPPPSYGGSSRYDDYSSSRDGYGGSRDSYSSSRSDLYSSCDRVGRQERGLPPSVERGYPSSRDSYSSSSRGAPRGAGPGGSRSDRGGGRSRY
T7 sequence (O95881 27-172): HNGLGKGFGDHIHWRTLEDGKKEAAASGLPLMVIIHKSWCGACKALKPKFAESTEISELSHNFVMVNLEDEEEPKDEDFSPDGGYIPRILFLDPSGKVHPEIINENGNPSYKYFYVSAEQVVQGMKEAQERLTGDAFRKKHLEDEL

Substance | Total peptides, INTS3 (INTS3) | Total peptides, ARFGAP2 (ARFGAP2) | Total peptides, KRT6A (KRT6A) | Total peptides, MGA (MGA) | Total peptides, KDM5B (KDM5B) | Total peptides, DLEC1 (DLEC1) | Total peptides, TXNDC12 (TXNDC12) | Total peptides, RAB34 (RAB34) | Total peptides, RERGL (RERGL) | Total peptides, RBMXL1 (RBMXL1) | Total peptides, TP53BP1 (TP53BP1; Flag IP, 293T Flp-In/T-Rex extracts, LC-MS/MS, one column per replicate IP, listed as Flag-i53) | Selectivity of binding to cellular proteins (IP-MS conclusion) (TP53BP1; three biological replicate IPs, interactors in two or more experiments) | Total peptides, GSPT1 (GSPT1) | Total peptides, CAPZA2 (CAPZA2) | Total peptides, HIST1H2BG (HIST1H2BG)
i53-DM: 53BP1-binding deficient mutant of i53 (P69L, L70V) | 3 | 3 | 3 | 2 | 3 | 2 | 2 | 2 | 2 | 3 | – | – | – | – | –
i53: UbvG08 with C-terminal di-glycine removed and I44A mutation; genetically encoded inhibitor of 53BP1 | – | – | – | – | – | – | – | – | – | – | 66 and 38 and 21 | highly selective binder of 53BP1 | 3 | 7 | 4
